According to publication PMC9482650, “Quantitative fragmentomics allow affinity mapping of interactomes” (Nature Communications, 2022):

T1: NHERF3_4, Q5T2W1
T1 sequence (Q5T2W1 373-468, limits assumed, looked up): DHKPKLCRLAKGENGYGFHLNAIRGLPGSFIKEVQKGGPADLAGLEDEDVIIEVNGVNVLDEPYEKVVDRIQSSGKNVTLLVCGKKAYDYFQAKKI

T2: APBA2_1, Q99767
T2 sequence (Q99767 563-664, limits assumed, looked up): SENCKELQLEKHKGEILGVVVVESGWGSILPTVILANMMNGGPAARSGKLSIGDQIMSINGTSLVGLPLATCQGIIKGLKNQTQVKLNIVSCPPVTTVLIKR

T3: PARD3B_1, Q8TEW8
T3 sequence (Q8TEW8 196-299, limits assumed, looked up): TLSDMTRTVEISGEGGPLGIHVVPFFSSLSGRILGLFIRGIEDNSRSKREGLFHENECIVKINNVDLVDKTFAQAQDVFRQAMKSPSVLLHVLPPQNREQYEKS

T4: SNTG2, Q9NY99
T4 sequence (Q9NY99 68-166, limits assumed, looked up): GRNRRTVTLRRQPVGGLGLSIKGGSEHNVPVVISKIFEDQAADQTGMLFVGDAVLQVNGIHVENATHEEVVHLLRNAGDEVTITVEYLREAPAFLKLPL

T5: DLG3_1, Q92796
T5 sequence (Q92796 125-227, limits assumed, looked up): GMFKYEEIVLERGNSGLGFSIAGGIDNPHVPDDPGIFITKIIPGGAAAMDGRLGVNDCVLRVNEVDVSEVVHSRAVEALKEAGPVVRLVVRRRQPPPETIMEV

T6: MPDZ_12, O75970
T6 sequence (O75970 1857-1958, limits assumed, looked up): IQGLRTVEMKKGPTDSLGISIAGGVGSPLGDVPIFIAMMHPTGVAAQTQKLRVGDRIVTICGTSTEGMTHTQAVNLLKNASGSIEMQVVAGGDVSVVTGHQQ

T7: SHANK1, Q9Y566
T7 sequence (Q9Y566 658-767, limits assumed, looked up): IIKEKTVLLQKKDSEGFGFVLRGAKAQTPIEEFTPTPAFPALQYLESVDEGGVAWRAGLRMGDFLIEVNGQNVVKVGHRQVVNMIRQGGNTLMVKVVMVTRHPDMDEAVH

T8: RHPN1, Q8TCX5
T8 sequence (Q8TCX5 508-602, limits assumed, looked up): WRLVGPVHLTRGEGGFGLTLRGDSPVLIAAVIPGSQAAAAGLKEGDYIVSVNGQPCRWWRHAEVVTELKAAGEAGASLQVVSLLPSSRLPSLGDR

T9: DVL3, Q92997
T9 sequence (Q92997 244-331, limits assumed, looked up): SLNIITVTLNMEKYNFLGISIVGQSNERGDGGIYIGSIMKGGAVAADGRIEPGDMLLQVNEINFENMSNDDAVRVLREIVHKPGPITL

T10: DLG3_2, Q92796
T10 sequence (Q92796 221-321, limits assumed, looked up): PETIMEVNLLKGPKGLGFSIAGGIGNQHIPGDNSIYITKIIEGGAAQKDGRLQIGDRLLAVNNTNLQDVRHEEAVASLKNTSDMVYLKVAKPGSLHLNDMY


biological target: T1, NHERF3_4, Q5T2W1; assay: holdup assay; parameters: key: below the threshold = too weak to quantify, mostly under pKd 3.1 to 4; conditions: plain residues with an end cap or a label only (N-terminal biotin on a linker: ado-ado)

Binder | pKd
AEDEEIQTKM [UNC93A, Q86WB7] | 4.52

biological target: Inadl_8, Q8NI35; assay: holdup assay; parameters: key: below the threshold = too weak to quantify, mostly under pKd 3.1 to 4; conditions: plain residues with an end cap or a label only (N-terminal biotin on a linker: ado-ado)
Sequence (Q8NI35 1425-1530): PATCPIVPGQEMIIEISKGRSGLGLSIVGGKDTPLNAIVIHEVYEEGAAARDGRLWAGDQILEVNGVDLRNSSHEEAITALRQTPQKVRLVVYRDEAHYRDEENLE

Binder | pKd
AEDEEIQTKM [UNC93A, Q86WB7] | below the threshold

biological target: LIMK2, P53671; assay: holdup assay; parameters: key: below the threshold = too weak to quantify, mostly under pKd 3.1 to 4; conditions: plain residues with an end cap or a label only (N-terminal biotin on a linker: ado-ado)
Sequence (P53671 143-248): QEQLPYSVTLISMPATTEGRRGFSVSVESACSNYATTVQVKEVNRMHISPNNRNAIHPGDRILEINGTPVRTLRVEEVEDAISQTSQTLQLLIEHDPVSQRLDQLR

Binder | pKd
AEDEEIQTKM [UNC93A, Q86WB7] | below the threshold

biological target: Inadl_6, Q8NI35; assay: holdup assay; parameters: key: below the threshold = too weak to quantify, mostly under pKd 3.1 to 4; conditions: plain residues with an end cap or a label only (N-terminal biotin on a linker: ado-ado)
Sequence (Q8NI35 1058-1167): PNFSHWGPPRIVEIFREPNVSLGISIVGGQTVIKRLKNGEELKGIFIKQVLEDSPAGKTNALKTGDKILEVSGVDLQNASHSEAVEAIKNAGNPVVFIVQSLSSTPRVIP

Binder | pKd
AEDEEIQTKM [UNC93A, Q86WB7] | below the threshold

biological target: MAST1, Q9Y2H9; assay: holdup assay; parameters: key: below the threshold = too weak to quantify, mostly under pKd 3.1 to 4; conditions: plain residues with an end cap or a label only (N-terminal biotin on a linker: ado-ado)
Sequence (Q9Y2H9 962-1065): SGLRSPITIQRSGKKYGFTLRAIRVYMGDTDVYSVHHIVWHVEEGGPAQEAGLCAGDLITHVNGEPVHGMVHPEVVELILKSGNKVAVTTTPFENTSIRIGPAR

Binder | pKd
AEDEEIQTKM [UNC93A, Q86WB7] | 4.72

biological target: GRID2IP_2, A4D2P6; assay: holdup assay; parameters: key: below the threshold = too weak to quantify, mostly under pKd 3.1 to 4; conditions: plain residues with an end cap or a label only (N-terminal biotin on a linker: ado-ado)
Sequence (A4D2P6 272-370): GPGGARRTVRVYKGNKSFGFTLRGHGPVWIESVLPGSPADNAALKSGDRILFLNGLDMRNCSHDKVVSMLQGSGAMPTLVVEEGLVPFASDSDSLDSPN

Binder | pKd
AEDEEIQTKM [UNC93A, Q86WB7] | 3.77

biological target: PARD3_3, Q8TEW0; assay: holdup assay; parameters: key: below the threshold = too weak to quantify, mostly under pKd 3.1 to 4; conditions: plain residues with an end cap or a label only (N-terminal biotin on a linker: ado-ado)
Sequence (Q8TEW0 582-685): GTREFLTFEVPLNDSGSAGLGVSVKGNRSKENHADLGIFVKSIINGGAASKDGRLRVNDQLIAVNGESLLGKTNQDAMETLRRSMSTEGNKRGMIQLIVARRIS

Binder | pKd
AEDEEIQTKM [UNC93A, Q86WB7] | below the threshold

biological target: T2, APBA2_1, Q99767; assay: holdup assay; parameters: key: below the threshold = too weak to quantify, mostly under pKd 3.1 to 4; conditions: plain residues with an end cap or a label only (N-terminal biotin on a linker: ado-ado)

Binder | pKd
AEDEEIQTKM [UNC93A, Q86WB7] | below the threshold

biological target: LNX1_2, Q8TBB1; assay: holdup assay; parameters: key: below the threshold = too weak to quantify, mostly under pKd 3.1 to 4; conditions: plain residues with an end cap or a label only (N-terminal biotin on a linker: ado-ado)
Sequence (Q8TBB1 371-470): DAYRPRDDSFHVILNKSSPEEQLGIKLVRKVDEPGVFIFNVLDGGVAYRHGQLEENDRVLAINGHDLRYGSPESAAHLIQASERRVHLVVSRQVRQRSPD

Binder | pKd
AEDEEIQTKM [UNC93A, Q86WB7] | below the threshold

biological target: T3, PARD3B_1, Q8TEW8; assay: holdup assay; parameters: key: below the threshold = too weak to quantify, mostly under pKd 3.1 to 4; conditions: plain residues with an end cap or a label only (N-terminal biotin on a linker: ado-ado)

Binder | pKd
AEDEEIQTKM [UNC93A, Q86WB7] | below the threshold

biological target: GOPC, Q9HD26; assay: holdup assay; parameters: key: below the threshold = too weak to quantify, mostly under pKd 3.1 to 4; conditions: plain residues with an end cap or a label only (N-terminal biotin on a linker: ado-ado)

Binder | pKd
AEDEEIQTKM [UNC93A, Q86WB7] | below the threshold

biological target: SCRIB_1, Q14160; assay: holdup assay; parameters: key: below the threshold = too weak to quantify, mostly under pKd 3.1 to 4; conditions: plain residues with an end cap or a label only (N-terminal biotin on a linker: ado-ado)
Sequence (Q14160 718-814): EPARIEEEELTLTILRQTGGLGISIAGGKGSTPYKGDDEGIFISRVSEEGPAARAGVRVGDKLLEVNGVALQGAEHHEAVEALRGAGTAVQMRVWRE

Binder | pKd
AEDEEIQTKM [UNC93A, Q86WB7] | below the threshold

biological target: LNX1_1, Q8TBB1; assay: holdup assay; parameters: key: below the threshold = too weak to quantify, mostly under pKd 3.1 to 4; conditions: plain residues with an end cap or a label only (N-terminal biotin on a linker: ado-ado)
Sequence (Q8TBB1 261-371): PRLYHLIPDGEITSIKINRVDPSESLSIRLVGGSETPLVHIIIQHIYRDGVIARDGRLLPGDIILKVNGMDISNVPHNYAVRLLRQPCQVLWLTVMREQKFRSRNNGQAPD

Binder | pKd
AEDEEIQTKM [UNC93A, Q86WB7] | below the threshold

biological target: IL16_3, Q14005; assay: holdup assay; parameters: key: below the threshold = too weak to quantify, mostly under pKd 3.1 to 4; conditions: plain residues with an end cap or a label only (N-terminal biotin on a linker: ado-ado)
Sequence (Q14005 1107-1207): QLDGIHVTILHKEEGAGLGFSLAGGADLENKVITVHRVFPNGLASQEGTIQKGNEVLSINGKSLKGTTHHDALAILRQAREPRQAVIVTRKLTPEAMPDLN

Binder | pKd
AEDEEIQTKM [UNC93A, Q86WB7] | below the threshold

biological target: T4, SNTG2, Q9NY99; assay: holdup assay; parameters: key: below the threshold = too weak to quantify, mostly under pKd 3.1 to 4; conditions: plain residues with an end cap or a label only (N-terminal biotin on a linker: ado-ado)

Binder | pKd
AEDEEIQTKM [UNC93A, Q86WB7] | below the threshold

biological target: T5, DLG3_1, Q92796; assay: holdup assay; parameters: key: below the threshold = too weak to quantify, mostly under pKd 3.1 to 4; conditions: plain residues with an end cap or a label only (N-terminal biotin on a linker: ado-ado)

Binder | pKd
AEDEEIQTKM [UNC93A, Q86WB7] | below the threshold

biological target: SCRIB_2, Q14160; assay: holdup assay; parameters: key: below the threshold = too weak to quantify, mostly under pKd 3.1 to 4; conditions: plain residues with an end cap or a label only (N-terminal biotin on a linker: ado-ado)
Sequence (Q14160 857-960): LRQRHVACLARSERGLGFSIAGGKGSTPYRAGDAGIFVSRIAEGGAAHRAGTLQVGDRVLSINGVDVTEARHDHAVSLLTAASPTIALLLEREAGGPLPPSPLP

Binder | pKd
AEDEEIQTKM [UNC93A, Q86WB7] | below the threshold

biological target: MAST2, Q6P0Q8; assay: holdup assay; parameters: key: below the threshold = too weak to quantify, mostly under pKd 3.1 to 4; conditions: plain residues with an end cap or a label only (N-terminal biotin on a linker: ado-ado)
Sequence (Q6P0Q8 1099-1202): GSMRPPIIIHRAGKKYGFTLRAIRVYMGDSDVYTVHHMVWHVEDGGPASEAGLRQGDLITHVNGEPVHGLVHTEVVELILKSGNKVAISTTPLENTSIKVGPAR

Binder | pKd
AEDEEIQTKM [UNC93A, Q86WB7] | 5.38

biological target: T6, MPDZ_12, O75970; assay: holdup assay; parameters: key: below the threshold = too weak to quantify, mostly under pKd 3.1 to 4; conditions: plain residues with an end cap or a label only (N-terminal biotin on a linker: ado-ado)

Binder | pKd
AEDEEIQTKM [UNC93A, Q86WB7] | below the threshold

biological target: T7, SHANK1, Q9Y566; assay: holdup assay; parameters: key: below the threshold = too weak to quantify, mostly under pKd 3.1 to 4; conditions: plain residues with an end cap or a label only (N-terminal biotin on a linker: ado-ado)

Binder | pKd
AEDEEIQTKM [UNC93A, Q86WB7] | 5.21

biological target: T8, RHPN1, Q8TCX5; assay: holdup assay; parameters: key: below the threshold = too weak to quantify, mostly under pKd 3.1 to 4; conditions: plain residues with an end cap or a label only (N-terminal biotin on a linker: ado-ado)

Binder | pKd
AEDEEIQTKM [UNC93A, Q86WB7] | 3.67

biological target: TJP1_2, Q07157; assay: holdup assay; parameters: key: below the threshold = too weak to quantify, mostly under pKd 3.1 to 4; conditions: plain residues with an end cap or a label only (N-terminal biotin on a linker: ado-ado)
Sequence (Q07157 181-274): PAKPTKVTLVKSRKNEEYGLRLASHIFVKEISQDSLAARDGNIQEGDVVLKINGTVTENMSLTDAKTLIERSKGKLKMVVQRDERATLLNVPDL

Binder | pKd
AEDEEIQTKM [UNC93A, Q86WB7] | below the threshold

biological target: T9, DVL3, Q92997; assay: holdup assay; parameters: key: below the threshold = too weak to quantify, mostly under pKd 3.1 to 4; conditions: plain residues with an end cap or a label only (N-terminal biotin on a linker: ado-ado)

Binder | pKd
AEDEEIQTKM [UNC93A, Q86WB7] | below the threshold

biological target: GORASP2, Q9H8Y8; assay: holdup assay; parameters: key: below the threshold = too weak to quantify, mostly under pKd 3.1 to 4; conditions: plain residues with an end cap or a label only (N-terminal biotin on a linker: ado-ado)

Binder | pKd
AEDEEIQTKM [UNC93A, Q86WB7] | below the threshold

biological target: T10, DLG3_2, Q92796; assay: holdup assay; parameters: key: below the threshold = too weak to quantify, mostly under pKd 3.1 to 4; conditions: plain residues with an end cap or a label only (N-terminal biotin on a linker: ado-ado)

Binder | pKd
AEDEEIQTKM [UNC93A, Q86WB7] | below the threshold

biological target: GRIP2_4, Q9C0E4; assay: holdup assay; parameters: key: below the threshold = too weak to quantify, mostly under pKd 3.1 to 4; conditions: plain residues with an end cap or a label only (N-terminal biotin on a linker: ado-ado)
Sequence (Q9C0E4 446-548): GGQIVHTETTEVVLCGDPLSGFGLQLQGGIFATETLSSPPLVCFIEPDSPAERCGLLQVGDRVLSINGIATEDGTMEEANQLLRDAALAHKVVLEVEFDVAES

Binder | pKd
AEDEEIQTKM [UNC93A, Q86WB7] | below the threshold

biological target: FRMPD2_1, Q68DX3; assay: holdup assay; parameters: key: below the threshold = too weak to quantify, mostly under pKd 3.1 to 4; conditions: plain residues with an end cap or a label only (N-terminal biotin on a linker: ado-ado)
Sequence (Q68DX3 770-861): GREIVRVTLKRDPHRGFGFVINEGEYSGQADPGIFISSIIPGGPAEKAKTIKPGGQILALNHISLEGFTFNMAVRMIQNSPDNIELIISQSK

Binder | pKd
AEDEEIQTKM [UNC93A, Q86WB7] | below the threshold
